Experimental data from PMC10094494.

Target: D-psicose 3-epimerase from Iocasia fonsfrigidae strain SP3-1 (Iocasia fonsfrigidae strain SP3-1)
Assay: native gel or EMSA; native-PAGE of the purified recombinant enzyme, run like SDS-PAGE but without SDS, beta-mercaptoethanol and heat

With “D-psicose 3-epimerase from Iocasia fonsfrigidae strain SP3-1 (enzyme)” the stoichiometry N was 2.
